Experimental findings from publication doi:10.1101/2025.11.08.687396 (bioRxiv, 2025) are described below.

B3: UBXN7-SBP (natural protein, human, UniProt O94888 1-489, looked up)
chain: MAAHGGSAASSALKGLIQQFTTITGASESVGKHMLEACNNNLEMAVTMFLDGGGIAEEPSTSSASVSTVRPHTEEEVRAPIPQKQEILVEPEPLFGAPKRRRPARSIFDGFRDFQTETIRQEQELRNGGAIDKKLTTLADLFRPPIDLMHKGSFETAKECGQMQNKWLMINIQNVQDFACQCLNRDVWSNEAVKNIIREHFIFWQVYHDSEEGQRYIQFYKLGDFPYVSILDPRTGQKLVEWHQLDVSSFLDQVTGFLGEHGQLDGLSSSPPKKCARSESLIDASEDSQLEAAIRASLQETHFDSTQTKQDSRSDEESESELFSGSEEFISVCGSDEEEEVENLAKSRKSPHKDLGHRKEENRRPLTEPPVRTDPGTATNHQGLPAVDSEILEMPPEKADGVVEGIDVNGPKAQLMLRYPDGKREQITLPEQAKLLALVKHVQSKGYPNERFELLTNFPRRKLSHLDYDITLQEAGLCPQETVFVQERN
notes: human UBXN7, wild type; also called SBP-tagged version of UBXN7; homolog of Ubx5; source: E. coli BL21 CodonPlus (DE3) RIPL, purified (Ni-NTA, SEC); not shown: SBP, C-terminal, kept

What all share (conditions): both partners purified
One assay deals with T1, Cdc48 (yeast (S. cerevisiae), UniProt P25694 1-835).
T1 construct: Cdc48 ATPase of yeast, wild type; pET28 with N-terminal His6-tag and a TEV-protease cleavage site; also called Cdc48 ATPase; wild-type (WT) Cdc48; source: E. coli BL21 CodonPlus (DE3) RIPL, purified (Ni-NTA, SEC)
The assay can be described thus: pull-down; Otu1-C120S-FLAG on anti-FLAG M2 agarose with Cdc48, UN and Ub(n)-TAIL, with or without Ubx5, 1 μM each, SEC buffer, 5 mM ATPγS, 1 h, 4°C; fluorescence scanning and Coomassie-blue staining.

In a further assay the target is T2, Ufd1-Npl4 (UN) complex (yeast (S. cerevisiae), UniProt P53044 1-361; P33755 1-580).
T2 construct: Ufd1 of yeast; Npl4 of yeast; The methods call the complex untagged; the plasmids are described as Ufd1 with an N-terminal His14-SUMO tag and Npl4 with a C-terminal His6 or FLAG-His6 tag; also called untagged Ufd1/Npl4 (UN) complex; source: bacterial expression
T2 sequence 1: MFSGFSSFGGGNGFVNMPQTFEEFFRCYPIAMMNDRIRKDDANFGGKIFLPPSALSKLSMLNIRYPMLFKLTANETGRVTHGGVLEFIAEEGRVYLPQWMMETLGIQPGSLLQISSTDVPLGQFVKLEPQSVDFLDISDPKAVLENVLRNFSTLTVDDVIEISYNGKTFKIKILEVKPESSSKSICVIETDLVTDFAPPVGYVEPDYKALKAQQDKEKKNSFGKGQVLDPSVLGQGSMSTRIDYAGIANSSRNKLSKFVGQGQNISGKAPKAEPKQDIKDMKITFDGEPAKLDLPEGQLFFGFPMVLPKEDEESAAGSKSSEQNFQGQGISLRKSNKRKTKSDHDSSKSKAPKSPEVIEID
T2 sequence 2: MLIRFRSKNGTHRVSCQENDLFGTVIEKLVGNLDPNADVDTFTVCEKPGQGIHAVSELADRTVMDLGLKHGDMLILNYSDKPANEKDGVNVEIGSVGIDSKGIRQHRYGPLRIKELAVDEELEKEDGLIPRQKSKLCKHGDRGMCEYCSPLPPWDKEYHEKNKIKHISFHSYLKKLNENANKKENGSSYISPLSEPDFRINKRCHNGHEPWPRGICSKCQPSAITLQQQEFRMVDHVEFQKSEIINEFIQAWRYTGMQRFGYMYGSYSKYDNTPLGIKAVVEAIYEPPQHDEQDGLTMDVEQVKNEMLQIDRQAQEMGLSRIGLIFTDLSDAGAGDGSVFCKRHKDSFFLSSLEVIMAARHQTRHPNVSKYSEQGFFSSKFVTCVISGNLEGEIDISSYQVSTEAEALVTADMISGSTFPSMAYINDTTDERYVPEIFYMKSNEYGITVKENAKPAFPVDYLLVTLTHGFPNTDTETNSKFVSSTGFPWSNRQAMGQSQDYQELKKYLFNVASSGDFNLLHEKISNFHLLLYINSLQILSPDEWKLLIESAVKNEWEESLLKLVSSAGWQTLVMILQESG
Described as above.

The assay “UBXN7-SBP” has as its target B3. The assay can be described thus: pull-down; UBXN7-SBP on streptavidin agarose with p97, human UN, Yod1-C160S and Ub(n)-TAIL, 1 μM each, SEC buffer, 5 mM ATPγS, 1 h, 4°C, eluted with 2 mM biotin; Coomassie-blue staining.
The next assay addresses T3, human Npl4 (human, UniProt Q8TAT6 1-608).
T3 construct: human Npl4; Used as the human UN complex with hUfd1; also called hNpl4; Npl4 of the human UN complex; source: purified
The assay is described as above.

The target of the next assay is T4, human p97 ATPase (human, UniProt P55072 1-806).
T4 construct: human p97 (VCP), wild type; pET28 with N-terminal His6-tag and a TEV-protease cleavage site; also called VCP; homolog of Cdc48; source: E. coli BL21 CodonPlus (DE3) RIPL, purified (Ni-NTA, SEC)
Described as above.

T4 sequence (P55072 whole entry): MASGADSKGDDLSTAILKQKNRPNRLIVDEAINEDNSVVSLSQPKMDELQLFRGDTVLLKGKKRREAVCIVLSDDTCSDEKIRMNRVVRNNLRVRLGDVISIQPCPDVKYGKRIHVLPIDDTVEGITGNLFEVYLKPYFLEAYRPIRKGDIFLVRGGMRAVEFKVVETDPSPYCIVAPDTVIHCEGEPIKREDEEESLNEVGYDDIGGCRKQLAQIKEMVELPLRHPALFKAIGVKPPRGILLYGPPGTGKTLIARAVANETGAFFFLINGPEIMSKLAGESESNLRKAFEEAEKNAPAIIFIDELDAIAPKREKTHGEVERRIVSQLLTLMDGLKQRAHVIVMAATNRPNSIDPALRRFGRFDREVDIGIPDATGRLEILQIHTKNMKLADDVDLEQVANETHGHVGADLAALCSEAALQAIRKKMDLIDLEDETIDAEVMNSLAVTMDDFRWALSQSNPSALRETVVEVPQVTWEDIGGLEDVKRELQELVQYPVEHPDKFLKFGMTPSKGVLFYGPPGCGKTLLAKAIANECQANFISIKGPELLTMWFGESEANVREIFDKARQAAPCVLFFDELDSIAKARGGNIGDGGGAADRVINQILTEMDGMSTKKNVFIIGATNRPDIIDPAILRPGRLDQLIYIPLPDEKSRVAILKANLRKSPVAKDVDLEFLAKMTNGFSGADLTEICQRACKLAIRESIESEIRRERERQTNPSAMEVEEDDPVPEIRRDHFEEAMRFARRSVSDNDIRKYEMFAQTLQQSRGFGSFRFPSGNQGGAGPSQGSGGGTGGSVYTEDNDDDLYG
T1 sequence (P25694 whole entry): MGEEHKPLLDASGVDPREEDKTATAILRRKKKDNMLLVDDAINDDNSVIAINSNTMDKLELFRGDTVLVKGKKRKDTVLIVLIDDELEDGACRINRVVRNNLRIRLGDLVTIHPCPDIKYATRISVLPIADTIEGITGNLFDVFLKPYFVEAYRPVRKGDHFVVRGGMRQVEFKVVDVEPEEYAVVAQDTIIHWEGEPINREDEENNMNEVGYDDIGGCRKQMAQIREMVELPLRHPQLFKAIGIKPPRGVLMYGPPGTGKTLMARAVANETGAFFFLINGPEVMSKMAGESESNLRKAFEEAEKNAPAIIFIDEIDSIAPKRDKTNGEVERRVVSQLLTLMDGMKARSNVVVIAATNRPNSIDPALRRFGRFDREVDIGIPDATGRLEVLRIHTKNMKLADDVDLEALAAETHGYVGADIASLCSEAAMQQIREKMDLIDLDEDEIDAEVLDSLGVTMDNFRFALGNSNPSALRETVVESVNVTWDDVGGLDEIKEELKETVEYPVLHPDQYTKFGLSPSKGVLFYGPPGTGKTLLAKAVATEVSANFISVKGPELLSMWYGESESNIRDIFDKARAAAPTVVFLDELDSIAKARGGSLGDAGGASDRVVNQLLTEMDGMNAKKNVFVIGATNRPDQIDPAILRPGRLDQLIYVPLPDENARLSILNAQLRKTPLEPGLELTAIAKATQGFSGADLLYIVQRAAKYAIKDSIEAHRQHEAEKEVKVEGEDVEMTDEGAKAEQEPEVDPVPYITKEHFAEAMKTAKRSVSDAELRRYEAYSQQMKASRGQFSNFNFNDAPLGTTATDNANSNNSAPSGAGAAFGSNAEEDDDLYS
T3 sequence (Q8TAT6 whole entry): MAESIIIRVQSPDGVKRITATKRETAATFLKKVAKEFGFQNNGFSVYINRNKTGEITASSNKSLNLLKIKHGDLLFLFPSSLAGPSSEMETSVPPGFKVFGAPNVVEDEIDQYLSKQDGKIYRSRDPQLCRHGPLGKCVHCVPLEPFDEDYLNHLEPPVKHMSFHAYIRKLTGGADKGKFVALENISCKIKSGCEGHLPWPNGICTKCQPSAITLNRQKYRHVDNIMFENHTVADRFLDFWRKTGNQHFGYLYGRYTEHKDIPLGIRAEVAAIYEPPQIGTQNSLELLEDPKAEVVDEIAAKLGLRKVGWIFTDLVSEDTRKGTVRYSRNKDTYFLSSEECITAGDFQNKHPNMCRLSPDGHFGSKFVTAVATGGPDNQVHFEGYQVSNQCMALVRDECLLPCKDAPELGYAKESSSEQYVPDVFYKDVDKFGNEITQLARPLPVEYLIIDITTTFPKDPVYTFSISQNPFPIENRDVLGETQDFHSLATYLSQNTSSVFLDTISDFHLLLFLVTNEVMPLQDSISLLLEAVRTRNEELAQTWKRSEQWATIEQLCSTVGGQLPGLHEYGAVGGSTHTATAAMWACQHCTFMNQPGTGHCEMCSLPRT

B1: Otu1-C120S-FLAG (enzyme, S. cerevisiae, UniProt P43558 1-301, looked up)
chain: MKLKVTGAGINQVVTLKQDATLNDLIEHINVDVKTMRFGYPPQRINLQGEDASLGQTQLDELGINSGEKITIESSDSNESFSLPPPQPKPKRVLKSTEMSIGGSGENVLSVHPVLDDNSSLFHAIAYGIFKQDSVRDLREMVSKEVLNNPVKFNDAILDKPNKDYAQWILKMESWGGAIEIGIISDALAVAIYVVDIDAVKIEKFNEDKFDNYILILFNGIHYDSLTMNEFKTVFNKNQPESDDVLTAALQLASNLKQTGYSFNTHKAQIKCNTCQMTFVGEREVARHAESTGHVDFGQNR
notes: deubiquitinating enzyme Otu1 of yeast with C120S; pET28: N-terminal His6-tag, TEV-protease cleavage site, then a FLAG tag; source: E. coli BL21 CodonPlus (DE3) RIPL, purified (Ni-NTA, SEC); not shown: FLAG, N-terminal, kept
Consider B1, for which the binding result in the assay with Cdc48 and in the assay with Ufd1-Npl4 (UN) complex was “binds” each time.

B2: Yod1-C160S (enzyme, human, UniProt Q5VVQ6 1-348, looked up)
chain: MFGPAKGRHFGVHPAPGFPGGVSQQAAGTKAGPAGAWPVGSRTDTMWRLRCKAKDGTHVLQGLSSRTRVRELQGQIAAITGIAPGGQRILVGYPPECLDLSNGDTILEDLPIQSGDMLIIEEDQTRPRSSPAFTKRGASSYVRETLPVLTRTVVPADNSSLFTSVYYVVEGGVLNPACAPEMRRLIAQIVASDPDFYSEAILGKTNQEYCDWIKRDDTWGGAIEISILSKFYQCEICVVDTQTVRIDRFGEDAGYTKRVLLIYDGIHYDPLQRNFPDPDTPPLTIFSSNDDIVLVQALELADEARRRRQFTDVNRFTLRCMVCQKGLTGQAEAREHAKETGHTNFGEV
notes: human deubiquitinating enzyme Yod1 with C160S; also called homolog of Otu1; source: E. coli BL21 CodonPlus (DE3) RIPL, purified (Ni-NTA, SEC)
Regarding B2, the binding result with UBXN7-SBP was “binds”.

As for B3, the binding result with human Npl4 and with human p97 ATPase was “binds” in each case.
